# Source: the domain aggregation screens of Martell et al. (2025)
# Experiment: soluble fraction after stress (log2 fold change); higher = more stays soluble; pooled small domains, quantitative proteomics
# Details: stress: 50 degC
# Procedure, shortened: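 Pooled custom libraries of small protein domains were each held under stress at 50°C. The read-out, high-throughput quantitative proteomics, tracked how much of each protein stayed soluble. This is reported as a base-two log fold change used to indicate aggregation propensity. Higher values mean more protein remains in solution.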
row,Sequence,soluble fraction (log2)
1,HMDISKTLGKNPLLIIDNIEYRGKTLDEITAMTGVKRFENIDIYGSEEAMKTYGEKAKDGVIIAYTT,0.0561
2,HMDLPSSETLKVKLNLAKAYVTIEDFGAARRALDEVLSVSSLVDPDLTIQAKSLLAEIDQRS,-0.0514
3,HMVTDTGAIEKVIDEVIAANPKQVQEIADQRAAGHEKPKTLGWLVGQIMKASGGKVNPAAVNEILLKKLG,0.149
4,HMDPKISWESDEKLSANIGHYENSIKPLMGNKYLIELSQLKDKIESHPWVARATIKRIFWNKIHIQLESHD,0.00717
5,HMSDKNVYGKYKNVFLSDEEFSELKQFYPNDWSDRIETLSEGIELKGYKYKNYLLAIKKWAEYEGQKAD,-0.0354
6,HMTVSLLQTRQRLQALADLGHYKGDLGAAWGPDAIEALKKAQATLGVTVDGKWGPQTEDAIQVALKVQ,-0.284
7,HMQGPDPYAVLGIDRHADERAIKRAYRKLISEHHPDRLGDLPEDMRKRAESRASEINAAYDRIKEARGF,0.0487
8,HMQKDYKTRLQEYYAKVGKKVNYMDSSTGPDHDKKFQTQVFLDKEIIGVGEGKSKKSSQQEAAKQALEKI,0.338
9,HMNPEDDLLKAIIMKYFSNAQVQVDKNVIEYLLKRVDRDYQNLYNILEKINILSLQRKSKITTHLIRDIM,-0.432
10,HMDAKQLQSLKNNNEQLAGFIVRLTNFYEGLSPDIDAELSKLRSHLSGKVDYTLATVSINKINQLFMLEP,-2.6
11,HMTSDADSLRDKTGYVAEQVTSKGGKVNLYDGGFDSLYSARSTGETISTGTEIRVVDPGGGNMLVVEPV,0.367
12,HMVKVEVKPNVLQWVIKRMDNFDRLKDQFPNIDKWINQESQPTLKQLEKLAKMTAVPLGYFFLPNPPEEK,-0.183
13,HMGPTLSPAEKRVFEVIPYDAILQDMVIRAAELPPGEVLAALTTLELKGLIKRLPGNLVMRRAR,0.0188
14,HMGRELSDLELSLLRILDDKIPLLIDEAADRLQLPVAQVLSAVTIMEIDGLIRREGMRKYLRTVEVEETK,-0.499
15,HMNLLDYDFFEKMSSKEQEEIVEKVYIDFLNKSTGTNSPFYLKLFEKGKKSYIVNWLNENNF,-1.44
16,HMDIDNDIIENILVMGVTKAIAINLSNEFERHRIIANIEYAKEKSKNSEIKNISAFTVEAIRQDYANS,-1.1
17,HMAIDWVQIKAEYISGTMSASKLAEKHGVSVYAIRKRSGKERWQELRRQNQSETANKIAEKI,-1.6
18,HMEDPKLAQLTEQERKILDLIADGLTNRQIAEKMFLAEKTVKNYVSTILAKMGMSNRSEAAAYVARLEAG,0.0787
19,HMNIVKGDTTANVRVVQQRLYNLGYYTYKVDGIWGTRTKTAVKKFQKDKGLVADGIVGAKTEKALGITLT,-1.29
20,HMKITAPLPGTITEIKVKVGDTVKNGDTVVVLEAMKMQNNIEAESNGTVTAIFVNKGDTVMEGDALMTI,0.14
21,HMTAGTTALNKLQQGMSTQQVQAALGTPSDRTVKESGVELWKYYYPYENMLLYLKFRDGHLVSFGTN,-0.0161
22,HMQVTPQVLRLLDVLGDKELSLRQIAEALGLSDRKNIMRNYVVPALDSGRVVRTVPNKPNSRFQKYRK,-0.404
23,HMQTLGADLRALRKARGLTLTDMAETLGRSVGWLSQVERDLSEPSITDLRHMARTLGVSVSMLFS,-1.41
24,HMSDIDHIAGRRIRQARLNAGMTLETLASQAGISKALLSKIENSKVSSPLATFSKISKVLGVPLSDLLKE,-0.056
25,HMWGQDVLFTIDKKEFKGKLLEQSDKHTTFLPDGQKTPQKIPNRLIKEIHLGSNKIIDFGNDFLI,-0.179

row,Sequence,soluble fraction (log2)
1,HMNPIDAHVGARVRLRRMLIGMSQEKLGELLGVTFQQIQKYEKGANRIGASRLYEVSRVLDVPVQYFFDDM,-3.47
2,HMPSQLPLAFARRHGVLLRGFSNGLAQLTVRPEVSTLSLAETRRHLGVPLALEKVTTERFDQLLREAYEA,-0.37
3,HMDIASNQIQGIKDSVGGDENYSKMVAWALESLPAEEVKAFNDLTETANAPAIKMAVQGLYSQYNNAM,0.264
4,HMIDDNTIIQIGDSYSKSIRLLGEPIELKNRSLNQKSYFMAVYDFKGRRYRLFFENDVLFDILRD,-1.86
5,HMFRMTPQRMAILAEVQNAERHLTAAEIYERVRRKYPTIAYGTVYRTLHLLAKHGLIQEFPFGDNASLFDR,0.0678
6,HMSLEDYVIIKNKTVKVYETEFDGAPVVTSSSVGQKLILVEYNDNFAKILYRAKDGLDYVGYIKRKDVYVR,-2.4
7,HMLNDTGAIRAAVEEVLAANEKSVNEYKGGKTQAFQYLIGQSMRALRGKAPAQEVTKLLKELLG,-0.263
8,HMDVLFGNRLRQLLDERNISQAHFADRIGVSRSRMNNYVAQRSEPDYATLIRIANTLDTSIDFLLGKS,-1.93
9,HMQNDILIQADEIVGDYFDMDKEALKMNKQAVIADIEKRQATAQGDEASALHYAKQKVENEFEDDGSQKD,0.185
10,HMSHGFFELKTTQKEALIKLLDSHPNFTHTKTEADLTTAFLKLPMDAEQFNKLLFTNGIVLSHLVKRK,-0.668
11,HMITTLLVENLQDVGMRLDHYLVYNLIKYSRSHIQSFIRSGDIRVNGKKVKTGYSLELKDLIHIEMP,-3.75
12,HMPLDYQELRNISPQAARQAILQILKANKGNVSQTARMLGITRKTVYKAMAKREAGNLDDGSRAPK,-0.554
13,HMSTNYVQVLRAALNGVSGRKLAQQYRVSRDTVAILLRQAKIQGWQRAEDLENITEEDLVALLSG,-0.373
14,HMFDTVTIGRKIAELRKAHNMTQFELADALGISFQAVSNWERGASMPDISKLPELAEIFGVTIDEVLGK,-0.839
15,HMSVEVADITRAYYEGVGFEWWIRSVRLDPNELIVDNDDEGKLYRVPFEINGEEVTFGDPVEVKIRYE,-0.541
16,HMHDLSQQIVRYLIQQGGSSSLTDKSDPQEIYRTFKVSKKKYKQALGNLYKSKTIVITSGKIELVD,-2.69
17,HMAILDTALDVLSMNLKDNYTSFQILRQAAIAGKIAFNLTEKNPLGGVIEVELTGDDLETWIEAATW,-0.115
18,HMELSTQERIQILLEILNQREIISFSQTLRKKEGKKGVVVTFLASLELAKDGYVTLVQNKSDQIYLRSN,-0.7
19,HMDSLELADEVGRVSEALQELRPHQREVLELSLVHGRSHQQISEKTGLALGTVKSHARRGLMRVREMLGV,-0.445
20,HMGTQIKSPMPGTILDVRVNVGDTVKEGDILMILEAMKMENEILAPVSGKVAAIQVSKGTAVNSGDLLAVL,0.224
21,HMRGFGYVRRLPSKRYQASYAGPDLQRHVAPTTFTTKADAESWLGAERKVVESGSWRPPAVREAEARLS,0.357
22,HMKAKTYTVQYIDEGKIIKEEELEEGSIINAPEVTKEGHTFIGWYEGEEKYDVYEPITRNLILESKNEIN,-0.137
23,HMQALDETTVSRIRQKAAARNLLLKVLAGQLGVARPTLSNVLARREAPSAALAARIRAFLDSP,-0.894
24,HMTTSNPMNVTSAEAAFDNGTDRLNAFISGRTTSEERSTYFPLFVRETKEDFLRAVGRFNEYIANHG,0.0364
25,HMAGTKRAENIEIQKLTEVLEARLDSVGFFWPDHKAESMIMTLRNMISRLPLTEADVRVFHGIIKSLADK,-0.527

row,Sequence,soluble fraction (log2)
1,HMNDNTAINEFKKMVFTRMVHLQIDNAELSKLSGVTNSKILALKYGNSNTLKLGDIVKVAKTLNINLNDL,-2.7
2,HMDDGNHTEYIVLEKAKFYDEAGEYEEGRDLVLSFDKYQDNWKLVYTLGVFNKKLNNLEEARKYYKQALE,-0.0519
3,HMVGDLPPQELRVFELIGDGLSNREIADEMILAEKTIKNYVTSLLQKLGMQRRTEAAAFAARLDER,-0.0396
4,HMNPTLPYGFAKRHGVILLEAGEVAVVGLREGADPAALIETRRALGRPLRVEPLDQATFDRRLSQVYA,-0.148
5,HMQISDEGELSGIVRKIIDANPQSVADYKAGKKKAIGFLVGQIMIETKGRANPASVNELLIKKLE,-0.0642
6,HMNETTVPDVINQNISTGKIIIEDADLEYRIQYIPSEKSSSIGTIINSIPIYGKRVKSGTIVDLKVLG,-0.0142
7,HMSVPQENKDLLGRSIEIFYAGKTVEAKVTDTGALAPLGRALDLSPATWRAFGASSISDWGVRGVFYRFVA,0.0464
8,HMRKPLDQSWVPDDDAMKILTNSGIEKEFIKNEIPEFILYWSDKGEISDSWNTKFISQIRRQWAKNQ,-0.222
9,HMKTITLDEAQEIALAEVDGKVTRAVEETDDGRSYYEFDIITNDQKHELEVDASSGKITKNEIDEDYVPS,0.171
10,HMGRSARVQQAVHQAVRALLEENDGERSALSVPLVAERAGVNSSTIYRRWGDLPRLLAAVASN,-0.481
11,HMQIDDSVELSAIVEKLLAANPEQVEQLKNGKTKVLGYFVGLAMKETQGRANPQKVNELIQTHL,-0.174
12,HMDIFSSFVAIKNANVRELPTAKSAQVATLSKGSEVTALGKVKGKNWYLVARDGKELGYVFGSLIAEAET,-1.29
13,HMTVTISPGYEGRLLRSYLKNTLSLSTSALARLKTREDGITVNGVRVTVRYVLHAGDLLQLAVD,-0.597
14,HMIISPKKLEYRQRIINALGDRKMSLNELSKAMGYKGITTKLSFTVDDMIKSGVIEKVMVGAYAKLHIP,-1.65
15,HMALSGTVQNFAGGIMILIFRPFKTGDYIEALGYFGKVSEVNIVSTKLRTFDNKTIILPNGALSNGNIQNY,-0.889
16,HMDRKFFFNEQYEDYINSDLKVKFMNDSGSKKSFQGELTKVTPSDLFLESEKESVKVPFSSIIQANLI,-0.147
17,HMETGKLIKELRLKKGMTQEELADKTEVSSRTIQRIENGEVDPRAYTLQMIARALEVDYSLFME,0.0531
18,HMEIESAHAQVLGVREIAASGATQHWIAFRFSDGHQRELLATPSQADVIFRGQQGVVHFAGDRLTGWIPE,-0.191
19,HMFSMKDFGQRLRQLRKERGLTQGDLARLAKIDIMQVSRYERGLGLPSLETAIALARVLETSTDLLFLG,-1.46
20,HMDYRSMSGLQKAALLIMSVGEETAAKLFQLMHDDEIREISQTMANLGTVNATVIERLFVEFADAISS,-0.966
21,HMKAGRNTLARQMAILEVLQKDGRALVDDLAARFETTPQTIRKDLSALAEVNQISRFHGGAALVG,-0.0796
22,HMKTTKLEELDMQKEFILKNGKYGFGVYIGGKYIGLTDIGTVNSFKDSLQLPVVSLSDIDFKTFAEKF,-0.757
23,HMSGIGTTIKMLRENKNISQEELGNVLGVSDKTISSWEINRTEPKMGIVQLLADYFGVSTDYLIKG,-0.146
24,HMSKIVPVAYSQFLKDVKNGNVSQVEIRGNNIKGINNNGSSFSTYAPNDLSLIDKLEKSNVEIIVMPLE,-0.125
25,HMNPLHYKAAHWVREGLFDDLKSFVELETRINSIFEEKDRGDVFEIFIEGYRSFSKWRALVLRLA,-0.28
